Measurements as given in patent US20200181261A1 (Bayer, published 2020).

T1: human CEACAM8, full-length, on transfected HeLa cells (human, UniProt P31997 35-320)
T1 construct: also called TPP-4190; HeLa human CEACAM8
T1 sequence: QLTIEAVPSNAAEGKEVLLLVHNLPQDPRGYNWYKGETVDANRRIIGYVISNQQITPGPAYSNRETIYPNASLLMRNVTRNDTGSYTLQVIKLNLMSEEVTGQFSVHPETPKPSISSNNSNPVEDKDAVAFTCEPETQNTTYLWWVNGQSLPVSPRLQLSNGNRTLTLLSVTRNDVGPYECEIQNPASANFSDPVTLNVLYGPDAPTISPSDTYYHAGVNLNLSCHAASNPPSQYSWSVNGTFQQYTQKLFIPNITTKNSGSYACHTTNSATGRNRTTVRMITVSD

T2: human CEACAM3, full-length, on transfected HeLa cells (human, UniProt P40198 35-252)
T2 construct: also called TPP-4187; HeLa human CEACAM3
T2 sequence: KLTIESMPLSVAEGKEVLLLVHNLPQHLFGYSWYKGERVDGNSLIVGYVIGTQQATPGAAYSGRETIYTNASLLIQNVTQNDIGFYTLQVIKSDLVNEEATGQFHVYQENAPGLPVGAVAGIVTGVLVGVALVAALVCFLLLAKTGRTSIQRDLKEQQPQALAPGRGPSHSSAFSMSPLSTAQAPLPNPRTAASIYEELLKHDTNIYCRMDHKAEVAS

T3: human CEACAM1, full-length, on transfected HeLa cells (human, UniProt P13688 35-526)
T3 construct: also called TPP-4185; HeLa human CEACAM1
T3 sequence: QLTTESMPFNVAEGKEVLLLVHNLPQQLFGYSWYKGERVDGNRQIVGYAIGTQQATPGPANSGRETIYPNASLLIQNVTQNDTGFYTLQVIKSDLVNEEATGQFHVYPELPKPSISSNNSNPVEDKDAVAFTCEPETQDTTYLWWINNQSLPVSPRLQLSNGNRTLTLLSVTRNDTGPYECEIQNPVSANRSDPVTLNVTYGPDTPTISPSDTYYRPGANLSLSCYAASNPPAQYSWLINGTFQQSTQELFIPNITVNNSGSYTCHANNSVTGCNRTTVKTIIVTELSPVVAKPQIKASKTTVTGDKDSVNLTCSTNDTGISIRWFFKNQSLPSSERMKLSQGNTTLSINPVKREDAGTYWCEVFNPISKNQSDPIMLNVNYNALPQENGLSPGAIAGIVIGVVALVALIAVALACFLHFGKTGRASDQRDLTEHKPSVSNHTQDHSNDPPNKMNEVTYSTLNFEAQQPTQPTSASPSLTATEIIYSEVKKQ

T4: human CEACAM6, full-length, on cells (human, UniProt P40199 35-320)
T4 construct: used both for transfected HeLa cells and for tumor cell lines that express CEACAM6 endogenously; also called TPP-4639; HeLa human CEACAM6
T4 sequence: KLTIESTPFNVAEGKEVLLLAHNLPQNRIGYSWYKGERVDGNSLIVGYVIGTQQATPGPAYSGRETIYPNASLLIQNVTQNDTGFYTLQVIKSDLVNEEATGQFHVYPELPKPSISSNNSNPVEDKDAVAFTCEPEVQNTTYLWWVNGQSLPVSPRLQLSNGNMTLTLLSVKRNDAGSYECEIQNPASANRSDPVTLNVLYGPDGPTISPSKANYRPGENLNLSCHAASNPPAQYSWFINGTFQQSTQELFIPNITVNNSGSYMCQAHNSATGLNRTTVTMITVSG

T5: human CEACAM5, full-length, on transfected HeLa cells (human, UniProt P06731 35-685, GPI anchor at the C-terminus on the cell surface, not carried by the letters)
T5 construct: also called TPP-4188; HeLa human CEACAM5
T5 sequence: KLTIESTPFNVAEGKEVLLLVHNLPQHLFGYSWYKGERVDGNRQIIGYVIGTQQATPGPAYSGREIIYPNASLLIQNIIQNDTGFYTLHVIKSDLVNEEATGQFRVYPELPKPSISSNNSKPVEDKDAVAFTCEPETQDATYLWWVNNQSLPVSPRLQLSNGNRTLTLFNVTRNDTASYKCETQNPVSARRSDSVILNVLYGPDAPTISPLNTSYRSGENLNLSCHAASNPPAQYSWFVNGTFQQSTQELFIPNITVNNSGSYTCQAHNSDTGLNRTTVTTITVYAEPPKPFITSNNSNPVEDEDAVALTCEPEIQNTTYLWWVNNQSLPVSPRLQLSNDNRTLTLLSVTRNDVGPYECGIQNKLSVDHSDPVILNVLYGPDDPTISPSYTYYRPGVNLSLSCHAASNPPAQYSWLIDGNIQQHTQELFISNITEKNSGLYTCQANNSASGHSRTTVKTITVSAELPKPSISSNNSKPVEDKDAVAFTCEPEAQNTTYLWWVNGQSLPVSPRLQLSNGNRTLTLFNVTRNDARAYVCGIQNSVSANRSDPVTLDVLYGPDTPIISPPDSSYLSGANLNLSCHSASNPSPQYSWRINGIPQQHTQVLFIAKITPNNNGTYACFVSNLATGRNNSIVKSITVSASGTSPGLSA


Experiments:
Assay in all cases: FACS, transfected HeLa cells
[1] = target: T1, human CEACAM8, full-length, on …
Protocol: (§1) For FACS experiments HeLa wild type cells were cultured in RPMI-1640, 10% FCS, while CEACAM-receptor transfected HeLa cells received in addition 0.5% Gentamycin (stock 10 mg/ml, Fa. PAA) and 200 μg/ml Hygromycin B (stock 50 mg/ml, Invitrogen). Cells were washed 3 times with PBS w/o Ca²⁺/Mg²⁺ and were detached from the culture plate non-enzymatically with EDTA dissociation buffer (Gibco). Cells were washed in cold FACS buffer (PBS w/o Ca²⁺/Mg²⁺ and heat-inactivated 3% FCS) and were counted using a countess machine (Invitrogen). 10⁵ cells per well were plated and incubated with the respective primary antibody (5 μg/ml) for 1 h at 4° C. on a plate shaker. […] After 2 times washing the cells were resuspended in 100 μl FACS buffer and were analysed on a FACS Canto II machine (Beckton Dickinson) or a FACS Array (Beckton Dickinson).
(§2) For EC₅₀ analysis, the primary antibodies were used at increasing concentrations in a range from 0.1 nM to 100 nM. Half maximal binding values (EC₅₀) were determined by plotting the median fluorescence intensity signal against the concentration (logarithmic scale). Curve fitting of data was performed using the Graph Pad prism analysis software.

[2] = target: T2, human CEACAM3, full-length, on …
Protocol: as §1, §2

[3] = target: T3, human CEACAM1, full-length, on …
Protocol: as §1, §2

[4] = target: T4, human CEACAM6, full-length, on cells
Protocol: as §1, §2

[5] = target: T5, human CEACAM5, full-length, on …
Protocol: as §1, §2

binding result [1]	binding result [2]	binding result [3]	EC50 [4] [nM]	FACS median fluorescence [4] [medianfluorescence]	binding result [5]	FACS median fluorescence [3] [medianfluorescence]	Binder
no binding (tested: 5 µg/ml)	no binding (tested: 5 µg/ml)	no binding (tested: 5 µg/ml)	0.5	10 to 100	no binding (tested: 5 µg/ml)	–	TPP-2971 (antibody, mouse IgG1, V domains shown, murine hybridoma antibody, mouse IgG1; also called 792.15H12C9) VH: QVTLKESGPGILQPSQTLSLTCSFSGFSLSTYGIGVGWIRQPSGKDLEWLAHIWWNDNKYYNTALKSRLTISKDTSNNQVFLKIASVDTADTATYYCARISLPYFDYWGQGTTLTVSS VL: DIVMTQSQKFMSTSVGDRVSITCKASQNVGTAVAWYQQKPGQSPKLLIYSASNRYTGVPDRFTGSGSGTDFTLTISNMQSEDLADYFCQQYSSYPLTFGAGTKLELK
no binding (tested: 5 µg/ml)	no binding (tested: 5 µg/ml)	no binding (tested: 5 µg/ml)	0.35	100 to 1000	no binding (tested: 5 µg/ml)	–	TPP-3187 (antibody, mouse IgG1, V domains shown, murine hybridoma antibody, mouse IgG1; also called 792.15C4F4) VH: QVTLKESGPGILQPSQTLSLTCSFSGFSLTTYGIGVGWIRQPSGKGLEWLAHIWWNDNKYYNTALKSRLTISKDTSNNQVFLKIASVDTADTATYYCARISLPYFDYWGQGTTLTVSS VL: DIVMTQSQKFMSTSVGDRVSITCKASQNVGTAVAWYQQKPGQSPKLLIYSASNRYTGVPDRFTGSGSGTDFTLTISNMQSEDLADYFCQQYNNYPLTFGAGTKLELK
no binding (tested: 5 µg/ml)	no binding (tested: 5 µg/ml)	no binding (tested: 5 µg/ml)	1	–	no binding (tested: 5 µg/ml)	–	TPP-3821 (antibody, human IgG2, kappa, V domains shown, humanized from TPP-3187, human IgG2; also called 3187HU2-hIgG2Kappa) VH: QVTLRESGPALVKPTQTLTLTCTFSGFSLSTYGIGVGWIRQPPGKALEWLAHIWWNDNKYYSTSLKTRLTISKDTSKNQVVLTMTNMDPVDTATYYCARISLPYFDYWGQGTLVTVSS VL: DIQLTQSPSFLSASVGDRVTITCKASQNVGTAVAWYQQKPGKAPKLLIYSASNRYTGVPSRFSGSGSGTEFTLTISSLQPEDFATYYCQQYNNYPLTFGGGTKVEIKR
no binding (tested: 5 µg/ml)	no binding (tested: 5 µg/ml)	no binding (tested: 5 µg/ml)	1	–	no binding (tested: 5 µg/ml)	–	TPP-3820 (antibody, human IgG2, kappa, V domains shown, humanized from TPP-3187, human IgG2; also called 3187HU1-hIgG2Kappa) VH: QVTLRESGPALVKPTQTLTLTCTFSGFSLTTYGIGVGWIRQPPGKGLEWLAHIWWNDNKYYSTSLKTRLTISKDTSKNQVVLTMTNMDPVDTATYYCARISLPYFDYWGQGTLVTVSS VL: DIQLTQSPSFLSASVGDRVTITCKASQNVGTAVAWYQQKPGKAPKLLIYSASNRYTGVPSRFSGSGSGTEFTLTISSLQPEDFATYYCQQYNNYPLTFGGGTKVEIKR
no binding (tested: 5 µg/ml)	no binding (tested: 5 µg/ml)	no binding (tested: 5 µg/ml)	0.6	–	no binding (tested: 5 µg/ml)	–	TPP-3310 (antibody, human IgG2, kappa, humanized from TPP-2971, human IgG2; also called TPP-2971HU1-hIgG2Kappa) heavy: QVTLRESGPALVKPTQTLTLTCTFSGFSLSTYGIGVGWIRQPPGKALEWLAHIWWNDNKYYSTSLKTRLTISKDTSKNQVVLTMTNMDPVDTATYYCARISLPYFDYWGQGTTLTVSSASTKGPSVFPLAPCSRSTSESTAALGCLVKDYFPEPVTVSWNSGALTSGVHTFPAVLQSSGLYSLSSVVTVPSSNFGTQTYTCNVDHKPSNTKVDKTVERKCCVECPPCPAPPVAGPSVFLFPPKPKDTLMISRTPEVTCVVVDVSHEDPEVQFNWYVDGVEVHNAKTKPREEQFNSTFRVVSVLTVVHQDWLNGKEYKCKVSNKGLPAPIEKTISKTKGQPREPQVYTLPPSREEMTKNQVSLTCLVKGFYPSDIAVEWESNGQPENNYKTTPPMLDSDGSFFLYSKLTVDKSRWQQGNVFSCSVMHEALHNHYTQKSLSLSPG light: DIQLTQSPSFLSASVGDRVTITCKASQNVGTAVAWYQQKPGKAPKLLIYSASNRYTGVPSRFSGSGSGTEFTLTISSLQPEDFATYYCQQYSSYPLTFGGGTKVEIKRTVAAPSVFIFPPSDEQLKSGTASVVCLLNNFYPREAKVQWKVDNALQSGNSQESVTEQDSKDSTYSLSSTLTLSKADYEKHKVYACEVTHQGLSSPVTKSFNRGEC
no binding (tested: 5 µg/ml)	–	–	19	1000 to 10000	no binding (tested: 5 µg/ml)	10 to 100	TPP-3707 (antibody, human IgG2, kappa, V domains shown, also called 090E-M007-A09-Mat2-hIgG2-hIgG2Kappa) VH: EVQLVESGGGLVQPGGSLRLSCAASGFTFSLYQMHWVRQAPGKGLEWVSWISFSGGNTGYADSVKGRFTISRDNSKNTLYLQMNSLRAEDTAVYYCARATGYSSPWYLDPWGQGTLVTVSS VL: DIQMTQSPSSLSASVGDRVTITCQASHEIDNYLNWYQQKPGKAPKLLIYDAYWSKTGVPSRFSGSGSGTDFTLTISSLQPEDIATYYCQGYDDLSVTFGGGTKVDIKR
